Assay results reported in US6083712.

Molecular target: biotin synthase (Escherichia coli) (UniProt P12996)

| Substance | pmol of biotin produced [pmol] |
| --- | --- |
| ferredoxin(flavodoxin)-NADP+ reductase (from UniProt P28861) (enzyme) | 800 |
| flavodoxin (from UniProt P61949) | 800 |
